Substitutions are numbered along the chain they refer to. Names may count otherwise. Like-named read-outs stand apart in the source and are kept apart here.
Key:
[1] = biological target: T1, human PD-1 (hPD-1) receptor expressed on cells (human, UniProt Q15116 25-288); assay: FMAT competition on CHO-hPD-1 cells; blocked ligand: fluorescently labelled hPD-L2/Fc at a constant concentration
T1 construct: whole, on cells; also called hPD-1/CHO; CHO-hPD1

hPD-1/Fc (R & D Systems) [2] = biological target: T2, hPD-1/Fc (R & D Systems) (human, UniProt Q15116 25-167); assay: bio-light interferometry (ForteBio Octet), PD-1/Fc on biosensor
T2 construct: also called human PD-1/Fc; PD-1-Fc fusion protein; not shown: Fc part of the bought fusion protein, not described

[3] = biological target: T1, human PD-1 (hPD-1) receptor expressed …; assay: CELISA on CHO cells expressing human PD-1, 450/620 nm
[4] = biological target: T1, human PD-1 (hPD-1) receptor expressed …; assay: CELISA on CHO-hPD-1 cells
[5] = biological target: T1, human PD-1 (hPD-1) receptor expressed …; assay: FACS, blockade of hPD-L1/Fc binding to CHO cells expressing human PD-1
hPD-1/Fc (R & D Systems) [6] = biological target: T2, hPD-1/Fc (R & D Systems); assay: protein ELISA, hPD-1/Fc immobilized
[7] = biological target: T1, human PD-1 (hPD-1) receptor expressed …; assay: FMAT, blockade of labeled hPD-L2/Fc binding to CHO-hPD-1 cells
hPD-1/Fc (R & D Systems) [8] = biological target: T2, hPD-1/Fc (R & D Systems); assay: bio-light interferometry (ForteBio Octet); lower end tied to 09A by Table II
[9] = biological target: T3, mouse PD-1 receptor on stably transfected CHO-K1 cells (mouse, UniProt Q02242 25-288); assay: CELISA and other assays on mouse PD-1 transfected CHO-K1 cells
T3 construct: whole, on cells
T3 sequence (looked up): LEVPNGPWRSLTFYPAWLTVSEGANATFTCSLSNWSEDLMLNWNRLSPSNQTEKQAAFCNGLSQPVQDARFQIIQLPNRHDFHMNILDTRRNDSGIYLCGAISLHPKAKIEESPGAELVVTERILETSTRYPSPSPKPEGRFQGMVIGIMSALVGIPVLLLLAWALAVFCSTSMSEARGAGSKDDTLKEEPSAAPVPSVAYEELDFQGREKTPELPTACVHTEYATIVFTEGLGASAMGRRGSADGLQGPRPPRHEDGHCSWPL

[10] = biological target: T1, human PD-1 (hPD-1) receptor expressed …; assay: FMAT competition on CHO-hPD-1 cells; blocked ligand: fluorescently labelled hPD-L1/Fc at a constant concentration
[11] = biological target: T1, human PD-1 (hPD-1) receptor expressed …; assay: FACS, blockade of hPD-L1/Fc binding to CHO cells expressing human PD-1; remark: listed apart in the source
[12] = biological target: T4, cynomolgus macaque PD-1 receptor on stably transfected CHO-K1 cells (cynomolgus macaque, UniProt B0LAJ3 25-288); assay: CELISA on cynomolgus PD-1 transfected CHO-K1 cells
T4 construct: also called cynomolgus PD-1; cynomolgous PD-1

[13] = biological target: T1, human PD-1 (hPD-1) receptor expressed …; assay: FMAT, blockade of labeled hPD-L1/Fc binding to CHO-hPD-1 cells
[14] = biological target: T1, human PD-1 (hPD-1) receptor expressed …; assay: cell-based or functional assay
[15] = biological target: cynomolgous PD-1 (form in the kinetic assay not stated) (cynomolgus macaque); assay: kinetic analysis, format for cynomolgus PD-1 not stated
[16] = biological target: T4, cynomolgus macaque PD-1 receptor on …; assay: inhibition of ligand (PD-L1, PD-L2) binding to cynomolgous PD-1
[17] = biological target: T1, human PD-1 (hPD-1) receptor expressed …; assay: FMAT, blockade of hPD-L1/Fc binding to CHO-hPD-1 cells
hPD-1/Fc (R & D Systems) [18] = biological target: T2, hPD-1/Fc (R & D Systems); assay: bio-light interferometry (ForteBio Octet), PD-1/Fc on biosensor; remark: listed apart in the source
hPD-1/Fc (R & D Systems) [19] = biological target: T2, hPD-1/Fc (R & D Systems); assay: protein ELISA, hPD-1/Fc immobilized; remark: listed apart in the source
[20] = biological target: T1, human PD-1 (hPD-1) receptor expressed …; assay: CELISA on CHO-hPD-1 cells; remark: listed apart in the source
[21] = biological target: T1, human PD-1 (hPD-1) receptor expressed …; assay: FMAT, blockade of hPD-L2/Fc binding to CHO-hPD-1 cells

T1 sequence (Q15116 25-288): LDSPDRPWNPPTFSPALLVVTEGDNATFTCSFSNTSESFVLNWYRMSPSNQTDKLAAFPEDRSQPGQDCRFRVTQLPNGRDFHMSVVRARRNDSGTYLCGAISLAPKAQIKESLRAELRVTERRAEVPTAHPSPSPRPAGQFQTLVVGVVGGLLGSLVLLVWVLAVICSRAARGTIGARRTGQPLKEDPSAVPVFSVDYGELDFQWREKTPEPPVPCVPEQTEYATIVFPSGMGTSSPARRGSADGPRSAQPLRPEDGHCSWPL
T2 sequence (Q15116 25-167 limits assumed): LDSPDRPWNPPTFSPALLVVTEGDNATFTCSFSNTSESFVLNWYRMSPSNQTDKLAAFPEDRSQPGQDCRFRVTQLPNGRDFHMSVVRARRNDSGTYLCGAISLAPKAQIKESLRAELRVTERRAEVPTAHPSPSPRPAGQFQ
T4 sequence (B0LAJ3 entry or part of it limits assumed): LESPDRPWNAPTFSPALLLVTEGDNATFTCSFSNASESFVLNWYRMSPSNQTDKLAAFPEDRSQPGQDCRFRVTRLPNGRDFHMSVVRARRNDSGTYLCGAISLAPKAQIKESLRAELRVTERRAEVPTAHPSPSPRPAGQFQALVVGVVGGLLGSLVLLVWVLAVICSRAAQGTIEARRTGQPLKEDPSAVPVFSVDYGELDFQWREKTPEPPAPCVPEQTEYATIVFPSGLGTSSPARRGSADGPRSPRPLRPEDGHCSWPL

B1: hPD-1.09A (antibody, V domains shown)
VH: QVQLQQPGAELVKPGTSVKLSCKASGYTFTNYYMYWVKQRPGQGLEWIGGINPSNGGTNFNEKFKNKATLTVDSSSSTTYMQLSSLTSEDSAVYYCTRRDYRFDMGFDYWGQGTTLTVSS
VL: DIVLTQSPASLAVSLGQRAAISCRASKGVSTSGYSYLHWYQQKPGQSPKLLIYLASYLESGVPARFSGSGSGTDFTLNIHPVEEEDAATYYCQHSRDLPLTFGTGTKLELK
IC50 (read off the curve) [1]: ~2000 pM | Kd (hPD-1/Fc (R & D Systems) [2]): 22 pM | koff (hPD-1/Fc (R & D Systems) [2]): 3.6e-05 s⁻¹ | kon (hPD-1/Fc (R & D Systems) [2]): 1.64e+06 M⁻¹ s⁻¹ | EC50 (read off the curve) [3]: ~100 pM | EC50 [4]: 113 pM | IC50 [5]: < 1000 pM | EC50 (hPD-1/Fc (R & D Systems) [6]): 123 pM | IC50 [7]: 1.7 pM | Kd (hPD-1/Fc (R & D Systems) [8]): 20 pM | binding result [9]: no binding | IC50 (read off the curve) [10]: ~800 pM | IC50 [11]: 0.8 pM | binding result [12]: binds | IC50 [13]: 0.9 pM | fold change in IFNgamma, SEB stimulated blood of patient A (prostate), 25 ug/mL hPD-1.09A vs SEB alone [14]: 1.9 fold | fold change in IFNgamma, SEB stimulated blood of patient B (prostate), 25 ug/mL hPD-1.09A vs SEB alone [14]: 1.2 fold | fold change in IFNgamma, SEB stimulated blood of patient C (prostate), 25 ug/mL hPD-1.09A vs SEB alone [14]: 2 fold | fold change in IFNgamma, SEB stimulated blood of patient D (melanoma), 25 ug/mL hPD-1.09A vs SEB alone [14]: 1.5 fold | fold change in IL-2, SEB stimulated blood of patient A (prostate), 25 ug/mL hPD-1.09A vs SEB alone [14]: 3.4 fold | fold change in IL-2, SEB stimulated blood of patient B (prostate), 25 ug/mL hPD-1.09A vs SEB alone [14]: 2.1 fold | fold change in IL-2, SEB stimulated blood of patient C (prostate), 25 ug/mL hPD-1.09A vs SEB alone [14]: 2 fold | fold change in IL-2, SEB stimulated blood of patient D (melanoma), 25 ug/mL hPD-1.09A vs SEB alone [14]: 2 fold | fold change in IL-5, SEB stimulated blood of patient A (prostate), 25 ug/mL hPD-1.09A vs SEB alone [14]: 0.7 fold | fold change in IL-5, SEB stimulated blood of patient B (prostate), 25 ug/mL hPD-1.09A vs SEB alone [14]: 0.4 fold | fold change in IL-5, SEB stimulated blood of patient C (prostate), 25 ug/mL hPD-1.09A vs SEB alone [14]: 0.9 fold | fold change in IL-5, SEB stimulated blood of patient D (melanoma), 25 ug/mL hPD-1.09A vs SEB alone [14]: 0.4 fold | fold change in IL-6, SEB stimulated blood of patient A (prostate), 25 ug/mL hPD-1.09A vs SEB alone [14]: 2.1 fold | fold change in IL-6, SEB stimulated blood of patient B (prostate), 25 ug/mL hPD-1.09A vs SEB alone [14]: 2.2 fold | fold change in IL-6, SEB stimulated blood of patient C (prostate), 25 ug/mL hPD-1.09A vs SEB alone [14]: 2.4 fold | fold change in IL-6, SEB stimulated blood of patient D (melanoma), 25 ug/mL hPD-1.09A vs SEB alone [14]: 1.9 fold | fold change in IL-13, SEB stimulated blood of patient A (prostate), 25 ug/mL hPD-1.09A vs SEB alone [14]: 0.8 fold | fold change in IL-13, SEB stimulated blood of patient B (prostate), 25 ug/mL hPD-1.09A vs SEB alone [14]: 0.6 fold | fold change in IL-13, SEB stimulated blood of patient C (prostate), 25 ug/mL hPD-1.09A vs SEB alone [14]: 1.1 fold | fold change in IL-13, SEB stimulated blood of patient D (melanoma), 25 ug/mL hPD-1.09A vs SEB alone [14]: 0.5 fold | fold change in IL-17, SEB stimulated blood of patient A (prostate), 25 ug/mL hPD-1.09A vs SEB alone [14]: 1.8 fold | fold change in IL-17, SEB stimulated blood of patient B (prostate), 25 ug/mL hPD-1.09A vs SEB alone [14]: 2.6 fold | fold change in IL-17, SEB stimulated blood of patient C (prostate), 25 ug/mL hPD-1.09A vs SEB alone [14]: 2.4 fold | fold change in IL-17, SEB stimulated blood of patient D (melanoma), 25 ug/mL hPD-1.09A vs SEB alone [14]: 2 fold | fold change in TNFalpha, SEB stimulated blood of patient A (prostate), 25 ug/mL hPD-1.09A vs SEB alone [14]: 2 fold | fold change in TNFalpha, SEB stimulated blood of patient B (prostate), 25 ug/mL hPD-1.09A vs SEB alone [14]: 1.5 fold | fold change in TNFalpha, SEB stimulated blood of patient C (prostate), 25 ug/mL hPD-1.09A vs SEB alone [14]: 2.4 fold | fold change in TNFalpha, SEB stimulated blood of patient D (melanoma), 25 ug/mL hPD-1.09A vs SEB alone [14]: 1.9 fold

B2: hPD-1.08A (antibody, V domains shown)
VH: QVQLQQPGAELVKPGASVKLSCKASGYTFTSYYLYWMKQRPGQGLEWIGGVNPSNGGTNFSEKFKSKATLTVDKSSSTAYMQLSSLTSEDSAVYYCTRRDSNYDGGFDYWGQGTTLTVSS
VL: B1 VL with A9T, A20T, G28S, Y34F, S47P, Y53F, Y57N, R96W, D97E, T104A
IC50 (read off the curve) [1]: ~2000 pM | Kd (hPD-1/Fc (R & D Systems) [2]): 24.1 pM | koff (hPD-1/Fc (R & D Systems) [2]): 3.03e-05 s⁻¹ | kon (hPD-1/Fc (R & D Systems) [2]): 1.25e+06 M⁻¹ s⁻¹ | EC50 (read off the curve) [3]: ~80 pM | EC50 [4]: 79 pM | IC50 [5]: < 1000 pM | EC50 (hPD-1/Fc (R & D Systems) [6]): 76 pM | IC50 [7]: 2.1 pM | binding result [9]: no binding | IC50 (read off the curve) [10]: ~700 pM | IC50 [11]: 0.9 pM | binding result [12]: binds | IC50 [13]: 0.73 pM

B3: h409A11 (antibody, human IgG4 S228P, kappa, V domains shown)
VH: QVQLVQSGVEVKKPGASVKVSCKASGYTFTNYYMYWVRQAPGQGLEWMGGINPSNGGTNFNEKFKNRVTLTTDSSTTTAYMELKSLQFDDTAVYYCARRDYRFDMGFDYWGQGTTVTVSS
VL: EIVLTQSPATLSLSPGERATLSCRASKGVSTSGYSYLHWYQQKPGQAPRLLIYLASYLESGVPARFSGSGSGTDFTLTISSLEPEDFAVYYCQHSRDLPLTFGGGTKVEIKR
notes: also called humanized IgG4 version of 09A antibody (409A-H + K09A-L-11)
Kd [15]: < 120 pM | IC50 [16]: < 1000 pM

B4: h409A16 (antibody, human IgG4 S228P, kappa, V domains shown)
VH: B3 VH
VL: EIVLTQSPLSLPVTPGEPASISCRASKGVSTSGYSYLHWYLQKPGQSPQLLIYLASYLESGVPDRFSGSGSGTDFTLKISRVEAEDVGVYYCQHSRDLPLTFGQGTKLEIKR
notes: also called humanized IgG4 version of 09A antibody (409A-H + K09A-L-16)
IC50 [17]: 696 pM | Kd [15]: < 120 pM | Kd (hPD-1/Fc (R & D Systems) [18]): 27.3 pM | koff (hPD-1/Fc (R & D Systems) [18]): 2.72e-05 s⁻¹ | kon (hPD-1/Fc (R & D Systems) [18]): 997000 M⁻¹ s⁻¹ | EC50 (hPD-1/Fc (R & D Systems) [19]): 90 pM | EC50 [20]: 63 pM | IC50 [21]: 810 pM | IC50 [16]: < 1000 pM

B5: h409A17 (antibody, human IgG4 S228P, kappa, V domains shown)
VH: B3 VH
VL: B4 VL with E1D, L4M, S7T, D74A, V89L
notes: also called humanized IgG4 version of 09A antibody (409A-H + K09A-L-17)
IC50 [17]: 818 pM | Kd (hPD-1/Fc (R & D Systems) [18]): 191 pM | koff (hPD-1/Fc (R & D Systems) [18]): 0.000191 s⁻¹ | kon (hPD-1/Fc (R & D Systems) [18]): 1e+06 M⁻¹ s⁻¹ | EC50 (hPD-1/Fc (R & D Systems) [19]): 88 pM | EC50 [20]: 83 pM | IC50 [21]: 463 pM | IC50 [16]: < 1000 pM
